Test results: PMC6706427

Molecular target: Flag-CLIC4-Y104A (dog)
Assay: co-IP; lysates of co-transfected 293T cells in RIPA buffer plus 0.5% CHAPS; anti-Flag or control antibody; Protein-G Dynabeads; 4 °C overnight; 4 washes; blots quantified with the Odyssey system, three independent repeats

- percent reduction of co-precipitation against Flag-CLIC4 wild type: 40.4 % reduced
Substance: mCherry-Tsg101 (from UniProt Q99816 1-390) (natural protein)
